{
  "source": "IntAct's records for PubMed 11847120",
  "parents": {"B1": {"name": "POU domain, class 2, transcription factor 1 (Homo sapiens), P14859-1 (parent)", "chain": "MNNPSETSKPSMESGDGNTGTQTNGLDFQKQPVPVGGAISTAQAQAFLGHLHQVQLAGTSLQAAAQSLNVQSKSNEESGDSQQPSQPSQQPSVQAAIPQTQLMLAGGQITGLTLTPAQQQLLLQQAQAQAQLLAAAVQQHSASQQHSAAGATISASAATPMTQIPLSQPIQIAQDLQQLQQLQQQNLNLQQFVLVHPTTNLQPAQFIISQTPQGQQGLLQAQNLLTQLPQQSQANLLQSQPSITLTSQPATPTRTIAATPIQTLPQSQSTPKRIDTPSLEEPSDLEELEQFAKTFKQRRIKLGFTQGDVGLAMGKLYGNDFSQTTISRFEALNLSFKNMCKLKPLLEKWLNDAENLSSDSSLSSPSALNSPGIEGLSRRRKKRTSIETNIRVALEKSFLENQKPTSEEITMIADQLNMEKEVIRVWFCNRRQKEKRINPPSSGGTSSSPIKAIFPSPTSLVATTPSLVTSSAATTLTVSPVLPLTSAAVTNLSVTGTSDTTSNNTATVISTAPPASSAVTSPSLSPSPSASASTSEASSASETSTTQTTSTPLSSPLGTSQVMVTASGLQTAAAAALQGAAQLPANASLAAMAAAAGLNPSLMAPSQFAAGGALLSLNPGTLSGALSPALMSNSTLATIQALASGGSLPITSLDATGNLVFANAGGAPNIVTAPLFLNPQNLSLLTSNPVSLVSAAAASAGNSAPVASLHATSTSAESIQNSLFTVASASGAASTTTTASKAQ", "partner": "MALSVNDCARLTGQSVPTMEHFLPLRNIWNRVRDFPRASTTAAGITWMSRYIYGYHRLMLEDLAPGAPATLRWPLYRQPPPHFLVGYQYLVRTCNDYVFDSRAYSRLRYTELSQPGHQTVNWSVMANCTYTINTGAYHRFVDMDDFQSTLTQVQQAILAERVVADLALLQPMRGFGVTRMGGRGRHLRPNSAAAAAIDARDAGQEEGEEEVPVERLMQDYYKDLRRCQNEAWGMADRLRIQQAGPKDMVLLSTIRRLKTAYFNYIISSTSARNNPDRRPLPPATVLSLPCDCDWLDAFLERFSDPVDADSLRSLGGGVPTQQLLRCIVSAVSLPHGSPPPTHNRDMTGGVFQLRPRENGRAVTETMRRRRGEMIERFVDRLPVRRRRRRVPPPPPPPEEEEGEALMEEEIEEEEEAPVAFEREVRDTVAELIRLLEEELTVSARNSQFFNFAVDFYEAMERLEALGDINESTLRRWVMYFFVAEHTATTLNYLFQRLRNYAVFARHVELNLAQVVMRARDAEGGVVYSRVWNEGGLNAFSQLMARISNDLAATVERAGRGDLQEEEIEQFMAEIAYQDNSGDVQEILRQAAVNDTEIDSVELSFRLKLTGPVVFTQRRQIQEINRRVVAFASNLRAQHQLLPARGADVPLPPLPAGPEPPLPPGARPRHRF"}},
  "data": [
    {"variants_of": "B1", "conditions": "with term_ade05 PTP", "values": [
      {"variant": "C428Y", "effect of a mutation on the interaction": "disrupting interaction strength"},
      {"variant": "Q415L;C428S", "effect of a mutation on the interaction": "decreasing interaction strength"},
      {"variant": "K403Q;R424S", "effect of a mutation on the interaction": "decreasing interaction strength"},
      {"variant": "I373T;V425A", "effect of a mutation on the interaction": "decreasing interaction strength"},
      {"variant": "K382T", "effect of a mutation on the interaction": "decreasing interaction strength"},
      {"variant": "R383S", "effect of a mutation on the interaction": "decreasing interaction strength"},
      {"variant": "R380W", "effect of a mutation on the interaction": "disrupting interaction strength"},
      {"variant": "T384P", "effect of a mutation on the interaction": "disrupting interaction strength"},
      {"variant": "T384S", "effect of a mutation on the interaction": "decreasing interaction strength"},
      {"variant": "E408G", "effect of a mutation on the interaction": "decreasing interaction strength"},
      {"variant": "K382E;L394S", "effect of a mutation on the interaction": "decreasing interaction strength"},
      {"variant": "E400G;M418L", "effect of a mutation on the interaction": "decreasing interaction strength"},
      {"variant": "T410S", "effect of a mutation on the interaction": "decreasing interaction strength"},
      {"variant": "S377G;K420E", "effect of a mutation on the interaction": "disrupting interaction strength"},
      {"variant": "K403E", "effect of a mutation on the interaction": "decreasing interaction strength"},
      {"variant": "K403M", "effect of a mutation on the interaction": "disrupting interaction strength"},
      {"variant": "F427Y", "effect of a mutation on the interaction": "disrupting interaction strength"},
      {"variant": "I412F;V425D", "effect of a mutation on the interaction": "decreasing interaction strength"},
      {"variant": "N429D", "effect of a mutation on the interaction": "disrupting interaction strength"},
      {"variant": "R431S", "effect of a mutation on the interaction": "decreasing interaction strength"},
      {"variant": "V425G", "effect of a mutation on the interaction": "disrupting interaction strength"},
      {"variant": "D414G;V425G", "effect of a mutation on the interaction": "disrupting interaction strength"},
      {"variant": "E419G;K433E", "effect of a mutation on the interaction": "decreasing interaction strength"}
    ]}
  ]
}
